Results published in article doi:10.1101/2025.03.30.646023 (bioRxiv, 2025).

Target: SARS-CoV-2 (ancestral strain) RBD protein (SARS-CoV-2 ancestral strain, UniProt P0DTC2)
Test: SPR

B1: PRO-37587 (antibody, V domains shown)
VH: QVQLVQSGAEVKKPGSSVKVSCKASGDTSDTYTISWVRQAPGQGLEWMGRIILLSGYANYAQKIQGRVTITADKSTSTAYMELTSLRSDDTAVYYCARGFNGDYYGWGDDDAFDFWGQGTLVTVYS
VL: QTVLTQPPSVSGAPGQRVTISCTGSSSNIGAGYRVHWYQQLPGTAPKLLIAGRSNRPSGVPDRFSGSKSGTSASLAITGLQAEDEADYYCQSYDSSLFDPHWVFGGGTKLTVL
- binding result: binds
